Like-named read-outs stand apart in the source and are kept apart here.
How the values were obtained:
[1] = biological target: CI-MPR C-terminal DXXLL peptide (Homo sapiens) (UniProt P11717); assay: ITC; conditions: cited from earlier work
[2] = biological target: Flag-tagged mouse GGA2 (mouse) (UniProt Q6P5E6); assay: BLI
[3] = biological target: Flag-tagged mouse GGA2 (mouse) (UniProt Q6P5E6); assay: BLI; remark: listed apart in the source

Flag-tagged mouse GGA2 (mouse), sequence (Q6P5E6 whole entry): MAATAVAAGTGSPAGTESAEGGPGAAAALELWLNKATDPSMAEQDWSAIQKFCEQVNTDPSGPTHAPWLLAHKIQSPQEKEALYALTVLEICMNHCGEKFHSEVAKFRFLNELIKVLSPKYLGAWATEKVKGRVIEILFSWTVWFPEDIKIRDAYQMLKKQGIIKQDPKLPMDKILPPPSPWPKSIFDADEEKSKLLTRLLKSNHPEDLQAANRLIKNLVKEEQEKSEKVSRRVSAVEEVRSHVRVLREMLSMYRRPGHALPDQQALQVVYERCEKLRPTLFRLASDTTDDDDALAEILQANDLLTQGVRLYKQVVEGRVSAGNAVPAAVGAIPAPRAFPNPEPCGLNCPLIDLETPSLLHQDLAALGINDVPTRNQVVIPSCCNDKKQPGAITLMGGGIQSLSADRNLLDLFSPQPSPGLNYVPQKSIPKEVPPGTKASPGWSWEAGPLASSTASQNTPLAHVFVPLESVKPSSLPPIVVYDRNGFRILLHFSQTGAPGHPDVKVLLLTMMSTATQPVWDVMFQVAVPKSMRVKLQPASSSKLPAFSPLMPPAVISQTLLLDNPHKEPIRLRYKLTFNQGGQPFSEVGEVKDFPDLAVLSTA
GGA2 VHS, sequence (Q9UJY4 30-166): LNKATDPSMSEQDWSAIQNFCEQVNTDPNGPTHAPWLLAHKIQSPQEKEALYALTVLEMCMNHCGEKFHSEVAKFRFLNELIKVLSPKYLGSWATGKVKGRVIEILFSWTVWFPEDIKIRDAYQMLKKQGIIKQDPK

## GGA2 VHS (from UniProt Q9UJY4)
[1]
  Kd: 7100 nM

## MBP-LRP9 30mer containing both DXXLL motifs (peptide)
[2]
  Kd: 150 nM
  koff: 0.0052 s⁻¹

## MBP-LRP9 30mer with the C-terminal DXXLL motif mutated to AXXAA (peptide)
[2]
  Kd: 280 nM
  koff: 0.0059 s⁻¹
[3]
  Kd: 380 nM
